Publication PMC13343191, “APE1 binds and processes abasic sites present in i-motif DNA and cooperates with PCBP1 in maintenance of telomeric stability”

How the values were obtained:
[1] = molecular target: APE1 NΔ33 (UniProt P27695 34-318, del1-33); assay: southwestern blot; switchSENSE: MES pH 5.5 (APE1) or 6.5 (iMab); UV-crosslinking: 50 mM Tris-acetate pH 5.5, 50 mM KCl, 1 mM DTT, 0.8% glycerol, 0.4 mM EDTA, 4°C; NMR: 50 mM NaCl, 10 mM MES pH 5.5, 1 mM DTT, 25°C; SMADNE: 25 mM MES pH 5.5, 150 mM NaCl, 0.1 mg/ml BSA, 1 mM DTT, 1 mM Trolox; details: protein: recombinant; tags: GST (Factor Xa cleavable, pGEX-3X) or His/GFP (pTAC-MAT); label: 5' IRDye800 (SWB, UV-crosslinking); i-motif, intramolecular
[2] = molecular target: APE1 WT (UniProt P27695 1-318); assay: as above; details: protein: recombinant; tags: GST (Factor Xa cleavable, pGEX-3X) or His/GFP (pTAC-MAT); label: 5' IRDye800 (SWB, UV-crosslinking); i-motif, intramolecular
Sequence of APE1 WT (P27695 whole entry): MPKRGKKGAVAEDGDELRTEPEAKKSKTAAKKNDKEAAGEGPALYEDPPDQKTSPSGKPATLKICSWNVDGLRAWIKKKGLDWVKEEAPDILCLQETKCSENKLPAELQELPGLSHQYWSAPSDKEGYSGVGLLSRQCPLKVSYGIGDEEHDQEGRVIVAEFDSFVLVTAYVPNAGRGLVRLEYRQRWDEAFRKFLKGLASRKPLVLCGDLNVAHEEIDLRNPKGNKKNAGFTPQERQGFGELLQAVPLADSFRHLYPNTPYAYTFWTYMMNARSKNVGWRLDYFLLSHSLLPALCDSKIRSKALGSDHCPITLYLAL

Sequence of APE1 NΔ33 (P27695 34-318, stated change not applied): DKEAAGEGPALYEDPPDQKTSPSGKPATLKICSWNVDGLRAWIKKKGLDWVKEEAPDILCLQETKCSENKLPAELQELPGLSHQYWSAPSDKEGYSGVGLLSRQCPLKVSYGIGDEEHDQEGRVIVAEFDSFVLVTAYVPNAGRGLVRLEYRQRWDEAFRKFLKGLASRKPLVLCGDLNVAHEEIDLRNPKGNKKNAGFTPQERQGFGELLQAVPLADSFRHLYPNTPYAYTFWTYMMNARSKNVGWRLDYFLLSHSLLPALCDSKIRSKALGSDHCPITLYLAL

## TAACCCTAACCCTAACCCTAACCCTAA (structured_DNA) [C-NAT]
[1]
  binding result: binds
[2]
  binding result: binds
